Reference: PMC10967246, “A novel tetratricopeptide-repeat protein, TTP1, forms complexes with glutamyl-tRNA reductase and protochlorophyllide oxidoreductase during tetrapyrrole biosynthesis” (Journal of Experimental Botany, 2023)

Legend:
Assay in all cases: MST; 200 nM RED-NHS-labelled 6×His–TTP1 constant, decreasing amounts of the binding partner; phosphate-buffered saline; Monolith NT.115, standard capillaries, excitation 100%, MST power 40%; Kd fit for 1:1 stoichiometry
Details in all cases: both partners purified
[1] = molecular target: T1, recombinant His-tagged PORC (Arabidopsis, UniProt O48741 68-401)
T1 construct: protochlorophyllide oxidoreductase C, Arabidopsis; source: recombinant, His-tagged
T1 sequence (looked up): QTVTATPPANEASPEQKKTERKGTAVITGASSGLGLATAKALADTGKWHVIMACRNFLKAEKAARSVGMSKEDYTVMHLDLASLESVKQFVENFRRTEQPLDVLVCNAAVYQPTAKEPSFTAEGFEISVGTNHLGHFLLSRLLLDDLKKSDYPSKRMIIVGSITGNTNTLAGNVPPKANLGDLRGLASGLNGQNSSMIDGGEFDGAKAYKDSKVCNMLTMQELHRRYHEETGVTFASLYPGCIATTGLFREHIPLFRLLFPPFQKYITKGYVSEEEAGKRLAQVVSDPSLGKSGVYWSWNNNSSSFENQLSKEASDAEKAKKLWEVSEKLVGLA

[2] = molecular target: T2, recombinant His-tagged full-length GluTR1 (Arabidopsis, UniProt P42804 62-543)
T2 construct: glutamyl-tRNA reductase 1 (HEMA1), Arabidopsis; called full-length GluTR1 in the legend; source: recombinant, His-tagged

[3] = molecular target: T3, recombinant His-tagged GluTR-binding protein (GBP) (Arabidopsis, UniProt Q9LU39 43-317)
T3 construct: source: recombinant, His-tagged
T3 sequence (looked up): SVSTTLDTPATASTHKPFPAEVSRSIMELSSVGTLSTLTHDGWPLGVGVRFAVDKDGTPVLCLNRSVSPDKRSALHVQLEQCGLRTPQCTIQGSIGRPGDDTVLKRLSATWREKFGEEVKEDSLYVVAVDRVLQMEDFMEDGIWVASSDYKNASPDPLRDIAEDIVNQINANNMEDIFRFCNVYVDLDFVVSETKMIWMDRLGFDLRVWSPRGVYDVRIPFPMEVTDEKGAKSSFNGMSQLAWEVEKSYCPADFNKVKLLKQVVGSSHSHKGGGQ

[4] = molecular target: T4, recombinant His-tagged PORB (Arabidopsis, UniProt P21218 67-401)
T4 construct: protochlorophyllide oxidoreductase B, Arabidopsis; source: recombinant, His-tagged
T4 sequence (looked up): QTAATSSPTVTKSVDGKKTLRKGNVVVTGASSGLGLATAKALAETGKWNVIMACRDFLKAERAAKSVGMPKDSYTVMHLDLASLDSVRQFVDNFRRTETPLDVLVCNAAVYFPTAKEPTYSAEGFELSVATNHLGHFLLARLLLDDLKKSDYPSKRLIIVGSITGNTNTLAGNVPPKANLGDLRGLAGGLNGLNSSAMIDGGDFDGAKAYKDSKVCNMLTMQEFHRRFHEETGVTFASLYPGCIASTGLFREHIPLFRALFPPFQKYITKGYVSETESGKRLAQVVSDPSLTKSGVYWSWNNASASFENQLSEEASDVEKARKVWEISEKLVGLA

Measured: Kd

B1: recombinant 6×His-tagged TTP1, RED-NHS labelled (natural protein)
chain: MLMTLAATTSVSFNSKLLLFRIRCSDSNPKRGFGSKKEEKDPALQQRKSSSKQSVSVPRKAPGLNTQFEGKSGRSFDIDFDERLENIRRSALEQKKTEVVKEFGPIDYDAPVKSDQKTIGLGTKVGVGIAVVVFGLVFALGDFLPTGSDSPTKNTTVVKNQISEEEKATLQQRLKEFETTLNGTPQDQAALEGAAVTLTELGDYSRAAAFLEKLAKERPTDPDVFRLLGEVNYELNNYEGSIAAYKISEKVSKGIDLEVTRGLMNAYLAAKKPDEAVKFLLDTRERLNTKKTSTTDSVTDETNLDPIQVELLLGKAYSDWGHISDAIAVYDQLISAHPEDFRGYLAKGIILRENGSRGDAERMFIQARFFAPNKAKALVDRYSKL
modifications: labelled with the RED-NHS Protein Labeling Kit, degree of labeling approximately 1.0
< 1000 nM: all assays above
